Experimental data reported in PMC7695167, “Targeting the Interaction between the SH3 Domain of Grb2 and Gab2” (Cells, 2020).
Values joined by “and” are separate entries in the source; they are usually repeats but may differ in a detail not shown here. Equal entries are not always repeated.

Target: Gab2 503-524 (Homo sapiens), Q9UQC2
Sequence (Q9UQC2 503-524): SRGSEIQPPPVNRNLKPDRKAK

- Kd: 100 µM and 22 µM
B1: Grb2 C-SH3, P62993 (protein)
chain: QQPTYVQALFDFDPQEDGELGFRRGDFIHVMDNSDPNWWKGACHGQTGMFPRNYVTPVNR
